Experimental data from a protein production outcome set (Wang et al. 2014).

Test: label from the status in PepcDB records
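Note: failed if final PepcDB status was selected cloned or expressed and not failed if soluble or beyond.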

Row | Sequence | protein production
1 | MKSSYGSSSNDLHAFVNEIKGEIQLSNINLDPYSFVSPSAYDTAWLSMIEEDINVDDNELKPMFQGCLDWIMCNQNAREGFWMNSTSYTTVADGRDEDGEKDMCILTSTLACVVALQKWNIGCFHLHKGTRYIERNTEMIIGKYINEEGSYPRWFAIKFTGILELAQKLGLHFVFSSRCIEMIKGMFYQRQEIIQREKLVHDCNYKPLLAYLEVLPSKLYVTNQEDIIVKSLDSMDGSLFQSPSATASAFMLTRNTKCLAYLQNLVQKCPNGVPQKYPLNEDLIKLSMVNLIESTGLGEFFGIEIEHVLEQVYSRYEEKDFERMPMSYLADQLHKDSLAFRMLRMHGRDVSPRSFCWFLNDQETRNHLERNIDSFLLVILSVYRATDLMFPGEHDLQEAREYTRNLLEKRRSIKEKMVPIYLNKIMHELSTPWIARLKHLDHRMWIEDKNSNVLSMEKASFLRLHSSYSDKLTHLAARNFEFQQAKYCRELEELTMWVKKWGLSDIGFGREKTTYCYFATVTSLPYEYAIKFGKLAAKTAILITIADDFFDEKGSFNDLEGLTKAVLRWEGEELKSYGNIIFRALDDIVRETANTCRTHHKTDIIVHLRNIWGETFESWLREAEWSKKGHTSSMDEYIRNGMISIAAHTIALSISCLMEPCFPHNKLKPGNYDSITTLLMIIPRLLNDLQSYQKEQEQGKMNSVLLHMKNHPGLEIEDSIAHIEKIIDSKRKEFLEHVLVDGLSDLPKPCKEIHMSCCKVFEMFFNKKNRYDSNTEMLHDIKKALYDPINVYELSEMEPMPLMAHGDEYMILPLLLNSLPNILEFKRKDGYGAMKTSMCFGRSYRVNKRVMASQLDDQHKPLKIVASQRKPVPMMQSIFAPCFY | failed
2 | MKSVNYRLLFSKSIFLGIFFLNIVFAQAQNEKKYIKEGDAAAASGDSKTALNQYLQAYKLNQTNASLNYKIGVQYLKSEYPHKCLSYFESAYKLDPKVDKDILFNLGVAYQENHRFDEAADYFTKYRATLDPSNPFLKKIDRRLYECANGKEFMEKPVDVKIQSVSSVVNSPYSDFAPVISADEKVMIFTSRRPGSTGGSFDENGQYYEDIYISKKIAGQWGAPQNIGSNINTEFHDASIALSADGSELFIYKDDNAGDIYYCKQRADGSWSKPLPIEGSVNSRTYRENAAAVSPDGNTLFFASNREGGYGKLDLYMVKMNDKGFWGKPINLGPTINTEVDDESPFMDFDGMTLYFSSRAHKGMGGLDIFKTYYDSTKGDWTEPINMGYPINSADDDINFVLSGDGGHGYYASAKDDGVGEKDIYMISMPPREDRTKLIEKMKAMHLDAPIADVVPAPTVAAVLLPITIKGVVKDAETGKPMQTVVQLTDENGKLIAEKNVGPDGLYSFTVKNEAATSYTLSTEKEEFGFINKTFSVPGEKTSSQEITQNLALKKLAVGNVYVLRNIYFDFDKATLKSASNKELNNLLQLLKQNPEMEIEISGHTDSKGSDEYNRVLSRKRAQAVVNWLVSKGISKNRLKFEGYGESRPLASNDDELEGRELNRRTEFKILKK | failed
3 | MKSYQPKSLLNDLQYYITPPHDCSYLDNKSARMVFLDPIHRIDVVTLSELSRVGFRRSGDFVYRPECHLCRQCLSCRVPVHDFNMNSLQKKAWKRNQDLRMSIVPTHAATSVHYQLYERYINERHADGDMFPPSLDQFEKFLVHSCTESFFLELWKDDRLICVSTCDLMDDGLSAVYTFFDPDENRRSLGVFAILKQLEYVKSIDLDYLYLGYWVPHSQKMNYKSQYIPLELLLDGQWRRLNRALSQEEISQLGESLMTILPSEWNSMIIKLEHHHHHH | failed
4 | MKSYRKELWFHTKRRREFINITPLLEECVRESGIKEGLLLCNAMHITASVFINDDEPGLHHDFEVWLEKLAPEKPYSQYKHNDTGEDNADAHLKRTIMGREVVIAITDRKMDLGPWEQVFYGEFDGMRPKRVLVKIIGE | not failed
5 | MKTDVRWATFNIRYDNPQDSLNNWQYRKDRVCQFIKDHELDIVGMQEVLHNQFQDLRAGLPEYDGIGVGRDDGKTAGEYAPLFYRKDKYEVLDSNTFWLAENPDSVGMMGWDAVCVRIATWAKFKDKATGKIFMAVNTHFDHVGEEARRQSALLIIRKIKEIVGERPAVVTGDFNVTDASDAYETITTNEFVMKDAYKTAARVTGVDYTFHDFARIPAEDCEKIDFIFVTPQVLVKSCEIPAEVPEALLSDHNPQLADLELEHHHHHH | not failed
6 | MKTEKEKREEEEEDLRPFRIHAYSKEELAMLYNPTYCISNAIYTLAAWIRHNKALKGELEKVGYNKYRRTFTPLEVKVLVKYLGEP | failed
7 | MKTFIIGISGVTNSGKTTLAKNLQKHLPNCSVISQDDFFKPESEIETDKNGFLQYDVLEALNMEKMMSAISCWMESARHSVVSTDQESAEEIPILIIEGFLLFNYKPLDTIWNRSYFLTIPYEECKRRRSTRVYQPPDSPGYFDGHVWPMYLKYRQEMQDITWEVVYLDGTKSEEDLFLQVYEDLIQELAKQKCLQVTA | failed
8 | MKTKPQAPHVDFYEKSELLHFLDCASKHENPQAFMFFRLLAFTGLRRGEALALQWSDINFETNELTVNKTQAVGKRWRTIIQTPKTNTSYRTIVLDPDTAQWLHKWKMTQARQCFELGFNANDPSQLVFTNQQNKLMSPSTVNYFNWSICKKYGLRHIKIHAFRHTFCTLAFEAHAGINEVSKTLGHADLKITEQIYLHVTKKQKNETASKLARYMSELLEHHHHHH | not failed
9 | MKTLEKVNYKGFIWPLAVGIVLWLITPWRPGGLSVQAWEMFAIFVATIVGCITKPLPIGGTTLLGMVVTVLVGLAPVKDVVNSKGVVIQTGILSSFGNSAAWLIAMAFIMAHGISKTGLGNRVAYVMIEKFGKRSIGIGYAITGLELMMGALIPSNSARTGGVTWPVVESISKSYDSKPNDPSRKKIGAYLDFMAFHANILSTALFITGAAPNLVAQQMAAQKGYQMSWVSWFWAALVPVLVATVIIPLVIYKMYPPEVKETPNAKNWADDKLKEMGPISKPEKIMATVFCLAILLWVLSGFFKIPQLDSAFVAFLAVTLLLITGVLSMEDALHETGAWNILIWLSILIFMAGKLISYGFIAWFAKFIQSEVHGINWGLVLVVLILLMFYTHYFFASGTAHMTALYLPFLTVATAMGAPLGLSAMLLAFTGVINASTTHYANGPASILATTGYVKQSEWWKMNFILGLIYMVIFGIVGTIWMKIIGIW | failed
10 | MKTLYDLPIVLRNLPEDLVLEKPLPEVSVTIRAYPEILNNLTKEQISLWIDATGKAVGEHTVKIYWQLPAGIEMVSIPDVTYTLKAKEDPLEHHHHHH | failed
11 | MKTMNYSLIRILFALVIGLVLVLWPNTAASYIVITIGVAFLIPGVISLFSFFGRKRSEHEPAPRFPIEGIGSLLFGLWLIVMPEFFADVLMFLLGFILIMGGVQQIASLSMARRWTPVPGIFYLVPSLILIAGVIALFNPTGVRNTAFIIIGISSLVYSLSELINWFKFARRRPKTPVTPHDEDIEDAKIIE | failed
12 | MKTMRKILEIDEERCNGCGLCVLDCAEGAIAIVDGKAKIVSDSFCDGLGACIGSCPQDALHIIEREAVPFDEEAAMEHVRSQGGTPEANHGHGHGAGTPHRHGQSAEHGGHGRIPGHGGCPGAAMRRFDSAESPAFAVAEGTVKGPGHWPLKIRLVPPTAPFLKGADVLVAADCAAAASPIFHSHFAAGKVVLIGCPKFDDTEAYAERLADILRVSGIASLTVLRMEVPCCRGLSAAAEKARVLSGTSLVLKEVIMTCAGGPAAPAPLSSLLEHHHHHH | not failed
13 | MKTRDKIIQASLELFNEHGERTITTNHIAAHLDISPGNLYYHFRNKEDIIRCIFDQYEQHLLLGFKPYADQKVDLELLMSYFDAMFYTMWQFRFMYANLADILARDDTLKARYLKVQQAVLEQSIAVLNQLKKDGILQIEDERIADLADTIKMIIGFWISYKLTQSSIATISKASLYEGLLRVLMIFKAYSTPDSLANFDRLEQHFRSQSN | not failed
14 | MKTRINYAKASPEAFKAVMALENYVQSSGLEHRFIHLIKLRASIINGCAFCVDMHVKESRHDGLSEQWINLMSVWRESPVYTEQERALLGWVDAVTKIAETGAPDDAFETLRAHFSDEEIVKITVAIGAINTWNRIAVGFRSQHPVEAAAKAA | not failed
